Legend:
Test in all cases: cell-based or functional assay
[1] = biological target: HIV-1 Env of pseudovirus 191955_A11 (HIV-1)
[2] = biological target: HIV-1 Env of pseudovirus 263-8 (HIV-1)
[3] = biological target: HIV-1 Env of pseudovirus 9004SS_A3_4 (HIV-1)
[4] = biological target: HIV-1 Env of pseudovirus T257-31 (HIV-1)

Substance | IC50 [1] | IC80 [1] | IC50 [2] | IC80 [2] | IC50 [3] | IC80 [3] | IC50 [4] | IC80 [4]
8ANC195 (antibody) | > 50 µg/mL | > 50 µg/mL | > 50 µg/mL | > 50 µg/mL | 0.17 µg/mL | 0.81 µg/mL | 0.32 µg/mL | 3.89 µg/mL
NIH 45-46 (antibody) | 0.11 µg/mL | 0.43 µg/mL | 0.05 µg/mL | 0.1 µg/mL | 0.18 µg/mL | 0.65 µg/mL | 0.23 µg/mL | 1.11 µg/mL
3BNC117 (antibody) | > 50 µg/mL | > 50 µg/mL | 0.005 µg/mL | 0.04 µg/mL | 0.07 µg/mL | 0.18 µg/mL | 0.06 µg/mL | 0.37 µg/mL
VRC07 (antibody) | 0.978 µg/mL | 4.82 µg/mL | 0.103 µg/mL | 0.282 µg/mL | 0.218 µg/mL | 0.75 µg/mL | 0.421 µg/mL | 3.17 µg/mL

Reference: patent US20240117018A1
